Reference: the supplement of paper PMC9112550, “Optimization of the antimicrobial peptide Bac7 by deep mutational scanning” (BMC Biology, 2022)

Tested on: Escherichia coli TOP10
Assay: shrunken log2 fold change of peptide-encoding DNA abundance (4.5 h post-induction vs induction); higher = less antimicrobial activity (less host growth inhibition)
Settings: time post-induction: 4.5 h; library: site-saturation at positions 5, 18, 19, 20
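Note: peptides expressed intracellularly from a pBAD plasmid library in pooled LB shake-flask culture, induced with 0.3% L-arabinose, DNA abundance read by NGS, three biological replicates, DESeq2 with apeglm shrinkage.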

Sequence	shrunken log2 fold change
RRIRLRPPRLPRPRPRPYSQPRP	-0.0787
RRIRVRPPRLPRPRPRPMMPPRP	-0.302
RRIRWRPPRLPRPRPRPALRPRP	0.243
RRIRLRPPRLPRPRPRPCVKPRP	0.00159
RRIRERPPRLPRPRPRPYFDPRP	-0.926
RRIRFRPPRLPRPRPRPFVEPRP	-0.27
RRIRYRPPRLPRPRPRPLCIPRP	-1.22
RRIRMRPPRLPRPRPRPLAGPRP	0.468
RRIRNRPPRLPRPRPRPTGPPRP	0.126
RRIRYRPPRLPRPRPRPQKIPRP	-0.524
RRIRKRPPRLPRPRPRPQEMPRP	-0.00136
RRIRKRPPRLPRPRPRPKDIPRP	-0.261
RRIRKRPPRLPRPRPRPYYNPRP	-0.197
RRIRWRPPRLPRPRPRPTLHPRP	0.132
RRIRFRPPRLPRPRPRPKMNPRP	-0.345
RRIRGRPPRLPRPRPRPLPYPRP	-0.086
RRIRFRPPRLPRPRPRPPQEPRP	0.258
RRIRSRPPRLPRPRPRPAYAPRP	0.0867
RRIRYRPPRLPRPRPRPEGTPRP	-0.0176
RRIRSRPPRLPRPRPRPVYGPRP	-0.355
RRIRRRPPRLPRPRPRPIANPRP	-0.195
RRIRCRPPRLPRPRPRPQQNPRP	0.0237
RRIRMRPPRLPRPRPRPDMNPRP	2.25
RRIRSRPPRLPRPRPRPCKKPRP	-0.121
RRIRWRPPRLPRPRPRPPRRPRP	0.642

Sequence	shrunken log2 fold change
RRIRSRPPRLPRPRPRPSPDPRP	-0.218
RRIRERPPRLPRPRPRPHWPPRP	0.132
RRIRKRPPRLPRPRPRPPTYPRP	0.0129
RRIRMRPPRLPRPRPRPLTQPRP	0.175
RRIRWRPPRLPRPRPRPVWHPRP	0.387
RRIRFRPPRLPRPRPRPMIWPRP	-0.101
RRIRCRPPRLPRPRPRPMVFPRP	-0.0164
RRIRWRPPRLPRPRPRPYQLPRP	-0.26
RRIRIRPPRLPRPRPRPKGMPRP	-0.214
RRIRQRPPRLPRPRPRPDQDPRP	0.192
RRIRVRPPRLPRPRPRPKDLPRP	0.0892
RRIRPRPPRLPRPRPRPDATPRP	0.625
RRIRCRPPRLPRPRPRPQAFPRP	-0.00585
RRIRPRPPRLPRPRPRPCFSPRP	-0.304
RRIRRRPPRLPRPRPRPRSFPRP	0.401
RRIRVRPPRLPRPRPRPRFVPRP	0.12
RRIRLRPPRLPRPRPRPHCGPRP	-0.22
RRIRYRPPRLPRPRPRPPSSPRP	-0.154
RRIRKRPPRLPRPRPRPNGMPRP	0.0655
RRIRFRPPRLPRPRPRPRAAPRP	0.408
RRIRHRPPRLPRPRPRPCPFPRP	-0.654
RRIRKRPPRLPRPRPRPYMVPRP	-0.211
RRIRSRPPRLPRPRPRPNSWPRP	0.0508
RRIRFRPPRLPRPRPRPMHGPRP	-0.0727
RRIRKRPPRLPRPRPRPCRYPRP	-0.00884

Sequence	shrunken log2 fold change
RRIRFRPPRLPRPRPRPQTCPRP	-0.31
RRIRRRPPRLPRPRPRPQTHPRP	0.361
RRIRYRPPRLPRPRPRPPEFPRP	0.00678
RRIRSRPPRLPRPRPRPCPVPRP	-0.0785
RRIRMRPPRLPRPRPRPMLEPRP	0.0346
RRIRIRPPRLPRPRPRPWLHPRP	-0.496
RRIRGRPPRLPRPRPRPQDCPRP	0.0863
RRIRHRPPRLPRPRPRPSQCPRP	-0.325
RRIRIRPPRLPRPRPRPGPVPRP	-0.0724
RRIRTRPPRLPRPRPRPPLSPRP	-0.0606
RRIRCRPPRLPRPRPRPPPIPRP	0.998
RRIRGRPPRLPRPRPRPGQYPRP	-0.0691
RRIRKRPPRLPRPRPRPWSIPRP	-0.304
RRIRDRPPRLPRPRPRPTHRPRP	0.0815
RRIRWRPPRLPRPRPRPYLIPRP	-0.38
RRIRKRPPRLPRPRPRPSFQPRP	0.0564
RRIRPRPPRLPRPRPRPGQIPRP	-0.0497
RRIRNRPPRLPRPRPRPHCDPRP	-0.292
RRIRLRPPRLPRPRPRPPYGPRP	0.0785
RRIRDRPPRLPRPRPRPSPHPRP	-0.0473
RRIRWRPPRLPRPRPRPSWRPRP	0.0809
RRIRYRPPRLPRPRPRPVRTPRP	-0.137
RRIRNRPPRLPRPRPRPNMYPRP	-0.392
RRIRYRPPRLPRPRPRPWYCPRP	-1.12
RRIRWRPPRLPRPRPRPKHHPRP	-0.208

Sequence	shrunken log2 fold change
RRIRSRPPRLPRPRPRPYPQPRP	-0.267
RRIRRRPPRLPRPRPRPERWPRP	0.613
RRIRSRPPRLPRPRPRPTLPPRP	0.212
RRIRCRPPRLPRPRPRPMYSPRP	-0.386
RRIRHRPPRLPRPRPRPDKYPRP	-0.146
RRIRCRPPRLPRPRPRPPSLPRP	0.413
RRIRQRPPRLPRPRPRPKRGPRP	0.38
RRIRDRPPRLPRPRPRPPTEPRP	0.274
RRIRQRPPRLPRPRPRPTCSPRP	-0.353
RRIRHRPPRLPRPRPRPCIVPRP	-0.0379
RRIRKRPPRLPRPRPRPVPWPRP	0.572
RRIRFRPPRLPRPRPRPFIVPRP	-0.772
RRIRNRPPRLPRPRPRPTQEPRP	0.786
RRIRARPPRLPRPRPRPWNCPRP	0.132
RRIRWRPPRLPRPRPRPRINPRP	0.0839
RRIRARPPRLPRPRPRPGPTPRP	0.574
RRIRIRPPRLPRPRPRPWGNPRP	-0.803
RRIRIRPPRLPRPRPRPCDYPRP	-1.01
RRIRPRPPRLPRPRPRPLFSPRP	-0.103
RRIRLRPPRLPRPRPRPTTCPRP	0.0385
RRIRCRPPRLPRPRPRPRHAPRP	0.451
RRIRKRPPRLPRPRPRPLGRPRP	1.35
RRIRIRPPRLPRPRPRPMVKPRP	-0.0157
RRIRPRPPRLPRPRPRPVGEPRP	0.415
RRIRFRPPRLPRPRPRPDICPRP	-0.0857

Sequence	shrunken log2 fold change
RRIRRRPPRLPRPRPRPWTYPRP	-0.0139
RRIRYRPPRLPRPRPRPWFMPRP	-0.356
RRIRERPPRLPRPRPRPKRDPRP	0.024
RRIRIRPPRLPRPRPRPNVMPRP	-0.328
RRIRWRPPRLPRPRPRPKCAPRP	0.706
RRIRVRPPRLPRPRPRPWTPPRP	0.158
RRIRHRPPRLPRPRPRPAHMPRP	-0.0835
RRIRLRPPRLPRPRPRPLPRPRP	0.475
RRIRQRPPRLPRPRPRPGKTPRP	-0.00992
RRIRTRPPRLPRPRPRPIVTPRP	1.13
RRIRTRPPRLPRPRPRPTRCPRP	-0.104
RRIRTRPPRLPRPRPRPYWSPRP	0.00748
RRIRGRPPRLPRPRPRPVSAPRP	0.676
RRIRMRPPRLPRPRPRPEKGPRP	-0.0013
RRIRNRPPRLPRPRPRPGIMPRP	-0.186
RRIRPRPPRLPRPRPRPFPRPRP	0.0474
RRIRPRPPRLPRPRPRPACFPRP	0.45
RRIRDRPPRLPRPRPRPENMPRP	0.0225
RRIRRRPPRLPRPRPRPPMEPRP	-0.0681
RRIRFRPPRLPRPRPRPDREPRP	-0.006
RRIRERPPRLPRPRPRPGFDPRP	0.0961
RRIRYRPPRLPRPRPRPICFPRP	-0.332
RRIRARPPRLPRPRPRPGCSPRP	0.505
RRIRPRPPRLPRPRPRPSDWPRP	0.248
RRIRIRPPRLPRPRPRPTRCPRP	0.33
